Patent publication US20210253718A1, “FRIZZLED5 PROTEIN-BINDING AGENTS” (Modmab Therapeutics Corporation, priority 2016, published 2021)
Changes are numbered by the printed parent chain. Blank lines part the entries; values can stand above or below the molecule they belong to.

Assays:
RWP1 cells = assay: Effect of anti-FZD5 Fabs on proliferation of pancreatic cancer cell lines (percent growth inhibition); type: cell-based, human; conditions: Fab 10 μg/ml
Description: (§1) The effect of presently disclosed anti-FZD5 Fabs on proliferation of RNF43 loss-of-function mutant pancreatic cancer cell lines HPAFII, PATU8988S and ASPC-1; and on pancreatic cancer cell line RWP1, was tested at […] and 10 μg/ml.

HPAFII cells = assay: as above; type: cell-based, human; conditions: for percent growth inhibition, HPAFII 2 μg/ml: Fab 2 μg/ml; for percent growth inhibition, HPAFII 10 μg/ml: Fab 10 μg/ml
Description: as §1

ASPC-1 cells = assay: as above; type: cell-based, human; conditions: Fab 10 μg/ml
Description: as §1

PATU8988S cells [1] = assay: as above; type: cell-based, human; conditions: Fab 10 μg/ml
Description: as §1

PATU8988S cells [2] = assay: as above; type: cell-based, human; conditions: Fab 2 μg/ml
FZD5 CRD = target: T1, FZD5 CRD (Homo sapiens, UniProt Q13467); assay: Immunofluorescence of anti-FZD5 Fab binding to CHO cells overexpressing Frizzled CRD; set-up: key: −: no binding; +: very weak binder; ++: weak binder; +++: good binder; ++++: very good binder
T1 construct: K29-T156; GPI anchor signal (C); expressed in transfected cells; host or cells: CHO cells, lentiviral pLenti-puro
T1 sequence (Q13467 29-156): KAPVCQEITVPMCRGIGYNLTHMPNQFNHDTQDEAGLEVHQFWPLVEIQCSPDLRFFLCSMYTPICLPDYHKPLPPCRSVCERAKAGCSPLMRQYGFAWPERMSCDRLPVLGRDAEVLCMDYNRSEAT
Outline: (§2)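 Using immunofluorescence plus flow cytometry, we examine Fab binding to surface CRDs of individual Frizzled receptors, each expressed on CHO cells as a myc-GPI fusion from a lentiviral vector.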

FZD9 CRD = target: T2, FZD9 CRD (Homo sapiens, UniProt O00144); assay: as above; set-up: key: −: no binding; +: very weak binder; ++: weak binder; +++: good binder; ++++: very good binder
T2 construct: G35-A161; GPI anchor signal (C); expressed in transfected cells; host or cells: CHO cells, lentiviral pLenti-puro
T2 sequence (O00144 35-161): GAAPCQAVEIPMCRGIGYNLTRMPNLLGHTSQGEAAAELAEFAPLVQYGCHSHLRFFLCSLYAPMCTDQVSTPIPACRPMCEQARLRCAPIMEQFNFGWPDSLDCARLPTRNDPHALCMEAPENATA
Outline: as §2

FZD1 CRD = target: T3, FZD1 CRD (Homo sapiens, UniProt Q9UP38); assay: as above; set-up: key: −: no binding; +: very weak binder; ++: weak binder; +++: good binder; ++++: very good binder
T3 construct: D112-P238; GPI anchor signal (C); expressed in transfected cells; host or cells: CHO cells, lentiviral pLenti-puro
Outline: as §2

FZD2 CRD = target: T4, FZD2 CRD (Homo sapiens, UniProt Q14332); assay: Flow cytometry of anti-FZD5 Fab binding to CHO cells overexpressing Frizzled CRD
T4 construct: D35-P161; GPI anchor signal (C); expressed in transfected cells; host or cells: CHO cells, lentiviral pLenti-puro
Outline: (§3)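 CHO lines each expressing a different human Frizzled CRD, myc-tagged and GPI-anchored at the surface, stained with 200 nM Fab, then Alexa Fluor 488 F(ab′)2 secondary. Dead cells excluded by viability dye; anti-c-Myc staining served as expression control. Binding read by flow cytometry.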

FZD4 CRD = target: T5, FZD4 CRD (Homo sapiens, UniProt Q9ULV1); assay: as above
T5 construct: E42-V167; GPI anchor signal (C); expressed in transfected cells; host or cells: CHO cells, lentiviral pLenti-puro
T5 sequence (Q9ULV1 42-167): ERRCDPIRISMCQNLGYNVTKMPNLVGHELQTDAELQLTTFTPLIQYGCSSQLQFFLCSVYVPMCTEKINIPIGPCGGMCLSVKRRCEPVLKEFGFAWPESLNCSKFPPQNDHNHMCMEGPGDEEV
Outline: as §3

[3] = test system: CHO cells not expressing Frizzled CRD; assay: Flow cytometry of anti-FZD5 Fab binding to CHO cells not expressing Frizzled CRD (background)
Source text: The binding of anti-FZD5 Fabs to cell surface-expressed Frizzled protein was further determined for each member of the Frizzled family via flow cytometry and immunofluorescence analysis of a panel of 10 CHO cell lines, each ectopically over-expressing the extracellular cysteine-rich domain (CRD) of a different Frizzled protein family member.

Immunofluorescence binding, Frizzled CRD overexpressed on CHO cells: FZD5 (FZD5 CRD): ++++
Immunofluorescence binding, Frizzled CRD overexpressed on CHO cells: FZD9 (FZD9 CRD): −
Immunofluorescence binding, Frizzled CRD overexpressed on CHO cells: FZD1 (FZD1 CRD): −
Median fluorescence, Frizzled CRD overexpressed on CHO cells: FZD2 (FZD2 CRD): 11.44
Median fluorescence, Frizzled CRD overexpressed on CHO cells: FZD4 (FZD4 CRD): 9.31
B1: Fab-2930: anti-FZD5 Fab with antibody variable region Fv-2930; CDR SEQ ID NOs: 35, 36, 69, 107, 145, 153 (antibody, V domains shown)
VH: EVQLVESGGGLVQPGGSLRLSCAASGFNLSYYYIHWVRQAPGKGLEWVASIYPYSGSTSYADSVKGRFTISADTSKNTAYLQMNSLRAEDTAVYYCARGALDYWGQGTLVTVSS
VL: DIQMTQSPSSLSASVGDRVTITCRASQSVSSAVAWYQQKPGKAPKLLIYSASSLYSGVPSRFSGSRSGTDFTLTISSLQPEDFATYYCQQWYGPYLITFGQGTKVEIK
percent growth inhibition, RWP1 10 μg/ml (RWP1 cells): 10.72%
percent growth inhibition, HPAFII 2 μg/ml (HPAFII cells): −10.77%
percent growth inhibition, HPAFII 10 μg/ml (HPAFII cells): 7.81%
percent growth inhibition, ASPC-1 10 μg/ml (ASPC-1 cells): 37.33%
percent growth inhibition, PATU8988s 10 μg/ml (PATU8988S cells [1]): −13.64%
percent growth inhibition, PATU8988s 2 μg/ml (PATU8988S cells [2]): −0.39%
Median fluorescence, Frizzled CRD overexpressed on CHO cells: None [3]: 4.66

Immunofluorescence binding, Frizzled CRD overexpressed on CHO cells: FZD5 (FZD5 CRD): ++++
Immunofluorescence binding, Frizzled CRD overexpressed on CHO cells: FZD9 (FZD9 CRD): −
Immunofluorescence binding, Frizzled CRD overexpressed on CHO cells: FZD1 (FZD1 CRD): −
Median fluorescence, Frizzled CRD overexpressed on CHO cells: FZD4 (FZD4 CRD): 7.3
B2: Fab-2935: anti-FZD5 Fab with antibody variable region Fv-2935; CDR SEQ ID NOs: 35, 36, 74, 111, 150, 178 (antibody, V domains shown)
VH: B1 VH with L29I, S30Y, Y54S, G99A, L101F
VL: DIQMTQSPSSLSASVGDRVTITCRASQSVSSAVAWYQQKPGKAPKLLIYSASSLYSGVPSRFSGSRSGTDFTLTISSLQPEDFATYYCQQWYGGYALITFGQGTKVEIK
percent growth inhibition, RWP1 10 μg/ml (RWP1 cells): 10.15%
percent growth inhibition, HPAFII 2 μg/ml (HPAFII cells): −9.18%
percent growth inhibition, HPAFII 10 μg/ml (HPAFII cells): −10.62%
percent growth inhibition, ASPC-1 10 μg/ml (ASPC-1 cells): 24.63%
percent growth inhibition, PATU8988s 10 μg/ml (PATU8988S cells [1]): −22.12%
percent growth inhibition, PATU8988s 2 μg/ml (PATU8988S cells [2]): 2.48%
Median fluorescence, Frizzled CRD overexpressed on CHO cells: None [3]: 3.46
